Assay results as given in patent publication US8992932B2 (Seattle Genetics, Inc., dated 2015).

T1: C4.4a on A549 cells transfected with the sequence for the complete C4.4a receptor (Homo sapiens)
T1 chain: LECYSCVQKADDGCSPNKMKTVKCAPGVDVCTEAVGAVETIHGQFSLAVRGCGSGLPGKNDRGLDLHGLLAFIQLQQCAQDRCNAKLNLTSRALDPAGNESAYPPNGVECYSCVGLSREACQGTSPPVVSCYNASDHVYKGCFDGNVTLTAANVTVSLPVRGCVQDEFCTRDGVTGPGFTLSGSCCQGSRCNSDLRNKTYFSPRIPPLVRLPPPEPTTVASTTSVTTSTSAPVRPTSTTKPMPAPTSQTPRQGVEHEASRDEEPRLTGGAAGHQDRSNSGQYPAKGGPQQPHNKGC

B1: ADC of Example 55 (antibody, V domains shown)
VH: EVQLLESGGGLVQPGGSLRLSCAASGFTFSDYQMTWIRQTPGKGLEWVSGISWNGGSTHYADSVKGRFTISRDNSKNTLYLQMNSLRAEDTAVYYCAKGDYLVYSSYYFKSWGQGTLVTVSS
VL: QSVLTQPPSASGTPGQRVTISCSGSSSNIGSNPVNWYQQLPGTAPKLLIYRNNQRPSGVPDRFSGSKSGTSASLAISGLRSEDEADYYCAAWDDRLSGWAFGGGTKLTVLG
modifications: toxophore-linker on Cys (via S); toxophore-linker on Cys (via S)
B2: ADC of Example 49 (antibody, V domains shown)
VH: EVQLLESGGGLVQPGGSLRLSCAASGFTFSSAWMSWVRQAPGKGLEWVSYISSSGSTIYYADSVKGRFTISRDNSKNTLYLQMNSLRAEDTAVYYCAREGLWAFDYWGQGTLVTVSS
VL: QSVLTQPPSVSGAPGQRVTISCTGSSSNIGAGYVVHWYQQLPGTAPKLLIYDNNKRPSGVPDRFSGSKSGTSASLAISGLRSEDEADYYCAAYDDSLSGPVFGGGTKLTVLG
modifications: toxophore-linker on Cys (via S); toxophore-linker on Cys (via S)
B3: ADC of Example 52 (antibody, V domains shown)
VH: B2 VH
VL: B2 VL
modifications: toxophore-linker on Cys (via S); toxophore-linker on Cys (via S)
B4: ADC of Example 53 (antibody, V domains shown)
VH: B2 VH
VL: B2 VL
modifications: toxophore-linker on Cys (via S); toxophore-linker on Cys (via S)

Molecular target: T1, C4.4a on A549 cells transfected with …
Experiment: cell-based or functional assay

Binder	IC50 [nM] A549: C4.4a (cell viability) [nM]
B1	0.053
B2	0.076
B3	0.04
B4	0.046
